Article PMC3079366
Read-outs that look alike come from different tables or passages of the source.

Measured: localisation_or_trafficking

GluA1: GluA1-4KR (K813, K819, K822, K868 to R) co-transfected with Nedd4-1 in HEK293T
abolishes: ubiquitination at K813 | ubiquitination at K819 | ubiquitination at K822 | ubiquitination at K868
